Experimental data from patent US20250129153A1 (Johns Hopkins, published 2025).

Key:
[1] = target: T1, rat ZnT8 (endogenous, in INS-1E cells) (rat, UniProt P0CE46 1-368); assay: immunofluorescence of live INS-1E cells; labeling abolished in ZnT8-knockout INS-1E cells
T1 construct: whole, on cells; also called ZnT8 in rodent β-cells
T1 sequence (looked up): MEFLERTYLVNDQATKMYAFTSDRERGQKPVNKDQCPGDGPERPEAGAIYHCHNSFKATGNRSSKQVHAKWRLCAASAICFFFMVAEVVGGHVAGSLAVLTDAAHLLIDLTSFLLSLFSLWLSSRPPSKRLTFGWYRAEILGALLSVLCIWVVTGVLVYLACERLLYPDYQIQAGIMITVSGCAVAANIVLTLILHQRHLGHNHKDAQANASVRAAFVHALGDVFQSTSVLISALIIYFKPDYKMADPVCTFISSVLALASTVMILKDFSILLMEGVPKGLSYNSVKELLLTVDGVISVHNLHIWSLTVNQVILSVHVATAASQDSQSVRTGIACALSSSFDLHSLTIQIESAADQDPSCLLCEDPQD

[2] = target: T2, human ZnT8-His (full-length ZnT8, isoform-2, C-terminal His-tag) (human, UniProt Q8IWU4-2 1-320); assay: ELISA titrations
T2 construct: mature; Expressed in 293-F cells; Used detergent-solubilized on nickel-coated plates, or purified and reconstituted into DOPC/DOPE/DOPG proteoliposomes (mixed orientations); Described as a homodimer; also called flZnT8; detergent-solubilized ZnT8; not shown: C-terminal His-tag
T2 sequence (looked up): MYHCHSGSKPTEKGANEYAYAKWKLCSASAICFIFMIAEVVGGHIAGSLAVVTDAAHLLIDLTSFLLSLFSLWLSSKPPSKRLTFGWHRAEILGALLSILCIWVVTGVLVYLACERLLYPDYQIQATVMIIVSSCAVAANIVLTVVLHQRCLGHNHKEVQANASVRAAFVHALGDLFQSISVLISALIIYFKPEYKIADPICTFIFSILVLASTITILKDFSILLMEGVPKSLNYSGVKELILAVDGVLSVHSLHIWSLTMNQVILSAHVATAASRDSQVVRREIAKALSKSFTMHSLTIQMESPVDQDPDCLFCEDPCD

[3] = target: T2, human ZnT8-His (full-length ZnT8, …); assay: ELISA titration to ZnT8 proteoliposomes, hyperbolic fit (printed as binding affinity)
Method: (§1) Comparative ELISAs. For proteoliposome-based ELISA, 4 μg proteoliposomes (containing 5% human ZnT8-His by weight) diluted in 100 μl PBS were added to each well of a high-binding 96-well plate, and incubated overnight at 4° C. The passively immobilized proteoliposomes were blocked with 5% BSA, and then tested with hybridoma culture supernatants. For solution-based ELISA, 293-F cells expressing human ZnT8-His or CTD-His were mechanically lysed using a microfluidizer, and cleared of cell debris by ultracentrifugation. Then, 0.2 μg human ZnT8-His from detergent-solubilized cell membrane or 0.1 μg CTD-His from cell lysate in 100 μl PBS were immobilized to each well of a nickel-coated 96-well plate via the C-terminal His-tag. The immobilized protein was blocked by 5% BSA, and then tested with mouse sera in 3-fold serial dilutions or hybridoma culture supernatants. Bound serum antibodies were detected by an HRP-conjugated goat anti-mouse IgG secondary antibody (1:3000) on a Flexstation-3 microplate reader.
Lymphocytes responsible for the production of antibodies to highly conserved epitopes of ZnT8 may be eliminated during the development of self-tolerance that prevents lymphocytes from attacking self-antigens. […]

[4] = target: T3, human ZnT8 (endogenous, in EndoC-βH1 cells and human pancreatic islets) (human, UniProt Q8IWU4 1-369); assay: imaging quantification, live EndoC-βH1 cells, 37 °C (surface binding and uptake)
T3 construct: also called cell surface ZnT8; endogenous ZnT8
T3 sequence: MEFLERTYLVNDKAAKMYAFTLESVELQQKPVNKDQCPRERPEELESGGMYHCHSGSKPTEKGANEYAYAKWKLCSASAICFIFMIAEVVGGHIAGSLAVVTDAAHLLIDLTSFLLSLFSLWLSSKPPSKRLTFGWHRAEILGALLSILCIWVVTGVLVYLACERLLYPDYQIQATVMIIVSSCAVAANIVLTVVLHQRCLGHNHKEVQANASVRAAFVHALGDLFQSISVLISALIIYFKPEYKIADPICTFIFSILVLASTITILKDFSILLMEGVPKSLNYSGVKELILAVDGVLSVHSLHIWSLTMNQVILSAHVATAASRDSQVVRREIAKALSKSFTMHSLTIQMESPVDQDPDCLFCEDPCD
Method: (§2) For intracellular IF labeling, live cells were washed with a high glucose (20 mM) Krebs buffer, fixed using a flowcytometry fixation buffer for 20 min at RT, washed again using PBS, permeabilized with flowcytometry permeabilization buffer for 20 min at RT, blocked with PBS plus 5% BSA for 30 min, and then exposed to mAb43 (1:1000), mAb20 (1:1000), anti-CD71 (1:200) or anti-Na+/K+ ATPase (1:200) antibody for 2 hr at room temperature. Secondary antibody immunolabeling, DAPI counterstain and immunofluorescence imaging were performed using the same procedure as above. For experiments with wild-type INS-1E cells or ZnT8-KO INS-1E cells (13), cells were grown in RMPI 1640 medium supplied with 10% (v/v) fetal bovine serum (FBS), 100 units/ml penicillin, 100 μg/ml streptomycin, 10 mM HEPES, 2 mM glutamine, 1 mM sodium pyruvate and 50 μM β-ME. Immunofluorescence labeling and imaging followed the same procedure as above.
(§3) To track cell-surface capture of mAb43 and the ensuing ZnT8-mediated mAb43 endocytosis, a fluorescent A647 secondary antibody to label mAb20 and mAb43, and a CellMask green stain were used to demarcate the cell boundary. Live EndoC-βH1 cells were monitored for antibody surface binding and internalization. mAb43-A647 was rapidly internalized at 37° C. whereas mAb20-A647 exposure yielded no detectable signal (FIG. 5A). […]

[5] = target: T2, human ZnT8-His (full-length ZnT8, …); assay: ELISA, mAb titration on detergent-solubilized flZnT8 (ZnT8-His) captured on a plate
Source text: FIGS. 1A-1G show induction of anti-TMD antibodies and biochemical characterization. […] The TMD is imbedded in the lipid bilayer while the CTD is extended into the cytoplasm. […] Error bars are standard errors from 4 ZnT8-KO or 4 NOD mice, *p<0.01 (n=4). […] Note, ZnT8 in proteoliposomes adopted mixed transmembrane orientations exposing either TMD or CTD to antibody binding as indicated. Solid lines are least-square fits of binding curves to a hyperbolic function with r2>0.98.
as §1, with “The immobilized protein was blocked by 5% BSA, and then tested with mouse sera in 3-fold serial dilutions or hybridoma culture supernatants.” left out

[6] = target: T3, human ZnT8 (endogenous, in EndoC-βH1 …); assay: cell-based or functional assay
[7] = target: T3, human ZnT8 (endogenous, in EndoC-βH1 …); assay: imaging quantification, live EndoC-βH1 cells, 8 °C (cell surface binding)
Method: as §2, §3

[8] = target: T4, mouse ZnT8 (endogenous, in mouse pancreatic islets and β-cells) (mouse, UniProt Q8BGG0 1-367); assay: immunofluorescence of dispersed, fixed and permeabilized mouse islet cells
T4 construct: whole, on cells
T4 sequence (looked up): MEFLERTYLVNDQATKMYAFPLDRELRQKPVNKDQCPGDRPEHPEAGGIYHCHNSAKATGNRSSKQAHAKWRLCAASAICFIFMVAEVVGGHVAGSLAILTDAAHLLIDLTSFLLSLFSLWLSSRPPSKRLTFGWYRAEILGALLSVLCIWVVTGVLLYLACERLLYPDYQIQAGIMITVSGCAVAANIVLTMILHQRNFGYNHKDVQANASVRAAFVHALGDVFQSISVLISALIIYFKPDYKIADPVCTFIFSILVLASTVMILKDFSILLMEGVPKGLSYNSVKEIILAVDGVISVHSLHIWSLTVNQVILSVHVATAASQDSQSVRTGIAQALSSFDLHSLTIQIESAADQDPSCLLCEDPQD

[9] = target: human CTD-His (cytosolic C-terminal domain of ZnT8, C-terminal His-tag) (human) (UniProt Q8IWU4); assay: ELISA, mAb titration on CTD (CTD-His) captured on a plate
[10] = target: T4, mouse ZnT8 (endogenous, in mouse …); assay: flow cytometry of live dispersed mouse pancreatic cells, chimeric mAb20 and PE anti-human IgG, DCV gate
Method: Tissue dispersion and pancreatic cell labeling. Excised pancreata from C57BL/6 mice were cut into small pieces, minced, and washed with HBSS on a 70-μm strainer to remove hematopoietic cells. The washed tissue pellets were resuspended in accutase and incubated at 37° C. for 30 min. DCV was added to stain DNA of live cells. The dispersed cells were filtrated through the strainer by a gentle spin at 1200 rpm for 2 min. The remaining tissue pellets underwent additional cycles of accutase digestion and cell filtration to achieve a complete cell dispersion. The dispersed cells were pooled and washed with cold cell culture medium with DNase and trypsin/chymotrypsin inhibitors. At this point, cell viability, measured by trypan blue exclusion, was typically over 80%. […] Chimeric mAb20 was used as an isotype control.
Fluorescence activated cell sorting and confocal microscopy analysis. The labeled pancreatic cells were analyzed and sorted immediately on a MoFlo XDP cell sorter (Beckman Coulter) equipped with a 405 and 561 nm laser. Data were collected on forward scatter, side scatter, and 440 nm and 578 nm fluorescence channels. Cells gated on forward and side scatter yielded >1 million single-cell counting events. The sorted cells in R0 or R1 gate were deposited on the glass bottom of a microwell dish by a gentle centrifugation (1200 rpm, 1 min). […]

B1: mAb43 (antibody, V domains shown)
VH: EVQLQQSGPELVKPGASVKIACKASGYTFTGYYMKWVKQSLGKSLEWIGDINPNNGGTNYNQHFKGKATLTVDESSSTAYMELRSLTSEDSAVYYCARGVDWIFAFWGQGTLVTVSP
VL: SIVMTQTPKFLPVSAGDRVTMTCKASQSVGNKVAWYQQKPGQSPKLLIYYATNRYTGVPDRFTGSGSGTDFTFTISSVQVEDLAVYFCQQHYSSPWTFGGGTKLEIK
notes: Hybridoma monoclonal antibody from a ZnT8-proteoliposome-immunized NOD mouse; also called mouse mAb43; anti-TMD mAb
[1]
  binding result: binds
[2]
  fold increase of mAb43 reactivity, ZnT8 in proteoliposomes against detergent-solubilized ZnT8: 6.29 fold
[3]
  Kd: 0.42 nM
[4]
  fold increase of total mAb43-A647 IF-labeling by glucose stimulation (20 mM against 2 mM) at 37 °C: 22.1 fold
[5]
  EC50 (read off the curve): ~2 nM
[6]
  net mAb43-A647 uptake (difference in IF signals between 37 °C and 8 °C), fold increase by glucose stimulation (20 against 2 mM): 30.9 fold
[7]
  fold increase of total mAb43-A647 IF-labeling by glucose stimulation (20 mM against 2 mM) at 8 °C: 15 fold
[8]
  binding result: binds

B2: mAb20 (antibody, mouse IgG1, kappa, V domains shown)
VH: QIQLVQSGPELKKPGETVKISCKASGYIFTNYPMHWVKQAPGKGLKWMGWINTYSGVPTHADDFKGRFAFSLETSANSAFLQINNLKNEDTATYFCTRSRITPTGGYAMDYWGQGTSVTVSS
VL: DVVMTQTPLSLPVSLGDQASISCRSSQSLVHSNGNTYLHWYLQKPGQSPNLLISKVSNRFSGVPERFSGSGSGTDFTLKISRVEAEDLGVYFCSQNTHVPWTFGGGTKLEIKR
notes: Validated anti-CTD control antibody; also called anti-CTD mAb20; mAb20-A647 (mAb20 labeled with a fluorescent A647 secondary antibody)
[9]
  EC50 (read off the curve): 0.7 nM
[3]
  Kd: 0.57 nM
[5]
  EC50 (read off the curve): ~2 nM

B3: chimeric mAb20 (mouse/human) (antibody, V domains shown)
VH: QIQLVQSGPELKKPGETVKISCKASGYIFTNYPMHWVKQAPGKGLKWMGWINTYSGVPTHADDFKGRFAFSLETSANSAFLQINNLKNEDTATYFCTRSRITPTGGYAMDYWGQGTSVTVSS
VL: DVVMTQTPLSLPVSLGDQASISCRSSQSLVHSNGNTYLHWYLQKPGQSPNLLISKVSNRFSGVPERFSGSGSGTDFTLKISRVEAEDLGVYFCSQNTHVPWTFGGGTKLEIK
notes: also called mouse/human chimeric mAb20
[10]
  binding result: no binding
